Assay results reported in US20200140562A1 (Innovent, published 2020).
Read-outs that look alike come from different tables or passages of the source.

B1: ADI-23515, IgG1 format (antibody)
heavy: not shown
light: EIVLTQSPGTLSLSPGERATLSCRASQSVSSSYLAWYQQKPGQAPRLLIYGASSRATGIPDRFSGSGSGTDFTLTISRLEPEDFAVYYCQQSERSPFTFGGGTKVEIKRTVAAPSVFIFPPSDEQLKSGTASVVCLLNNFYPREAKVQWKVDNALQSGNSQESVTEQDSKDSTYSLSSTLTLSKADYEKHKVYACEVTHQGLSSPVTKSFNRGEC
notes: Made in yeast or CHO cells; also called ADI-23515-g1
B2: ADI-20096, IgG1 format (antibody, V domains shown)
VH: EVQLVESGGGLVKPGGSLRLSCAASGFTFSSYSMNWVRQAPGKGLEWVSSISSSSNYIYYADSVKGRFTISRDNAKNSLYLQMNSLRAEDTAVYYCARGAPLGYSWEYFDLWGRGTLVTVSS
VL: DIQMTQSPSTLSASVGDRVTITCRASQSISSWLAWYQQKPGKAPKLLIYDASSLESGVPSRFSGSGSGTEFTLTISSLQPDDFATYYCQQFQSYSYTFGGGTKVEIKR
notes: Made in yeast
B3: ADI-20048, IgG1 format (antibody, V domains shown)
VH: QVQLQESGPGLVKPSETLSLTCTVSGGSISSYYWSWIRQPPGKGLEWIGYIYSSGSTNYNPSLKSRVTISVDTSKNQFSLKLSSVTAADTAVYYCARDAPGGSSYQDYYMDVWGKGTTVTVSS
VL: EIVLTQSPATLSLSPGERATLSCRASQSVSSYLAWFQQKPGQAPRLLIYDASNRATGIPARFSGSGSGTDFTLTISSLEPEDFAVYYCQQAFSMPPTFGGGTKVEIKR
notes: Made in yeast
B4: Hu106-222 (IgG2) (antibody, V domains shown)
VH: QVQLVQSGSELKKPGASVKVSCKASGYTFTDYSMHWVRQAPGQGLKWMGWINTETGEPTYADDFKGRFVFSLDTSVSTAYLQISSLKAEDTAVYYCANPYYDYVSYYAMDYWGQGTLVTVSS
VL: DIQMTQSPSSLSASVGDRVTITCKASQDVSTAVAWYQQKPGKAPKLLIYSASYLYTGVPSRFSGSGSGTDFTFTISSLQPEDIATYYCQQHYSTPRTFGQGTKLEIK

Key:
[1] = molecular target: T1, human OX40 on cells (CHO-hOX40, 293HEK-hOX40, Jurkat-hOX40, activated primary CD4+ T cells) (human, UniProt P43489 29-277); test: cell-based or functional assay
T1 sequence (looked up): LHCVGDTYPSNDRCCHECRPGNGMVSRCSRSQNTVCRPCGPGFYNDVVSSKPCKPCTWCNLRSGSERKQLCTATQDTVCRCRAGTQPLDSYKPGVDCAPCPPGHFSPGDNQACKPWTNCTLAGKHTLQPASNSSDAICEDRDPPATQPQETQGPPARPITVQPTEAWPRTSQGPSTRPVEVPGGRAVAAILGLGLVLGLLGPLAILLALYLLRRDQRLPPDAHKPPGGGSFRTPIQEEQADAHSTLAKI

[2] = molecular target: T2, cyno OX40_Fc (Acro Biosystems) (cyno); test: BLI, IgG1 on tip, cyno OX40-Fc 100 nM, avid
T2 construct: Bought

[3] = molecular target: T3, human OX40_Fc (R&D Systems) (human, UniProt P43489 29-216); test: BLI, IgG1 on tip, hOX40-Fc 50 nM, avid
T3 construct: Bought

[4] = molecular target: T4, mouse OX40Fc (Acro Biosystems) (mouse, UniProt P47741 20-211, limits assumed); test: BLI, IgG1 on tip, mouse OX40-Fc 100 nM, avid
T4 construct: Bought; not shown: Fc
T4 sequence (looked up): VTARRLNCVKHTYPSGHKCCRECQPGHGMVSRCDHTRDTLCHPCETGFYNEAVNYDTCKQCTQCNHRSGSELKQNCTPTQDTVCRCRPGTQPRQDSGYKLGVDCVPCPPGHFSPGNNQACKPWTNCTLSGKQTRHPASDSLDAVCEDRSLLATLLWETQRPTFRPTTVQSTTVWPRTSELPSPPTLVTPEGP

[5] = molecular target: T1, human OX40 on cells (CHO-hOX40, …); test: flow cytometry, MFI on CHO-hOX40 over wild-type CHO
[6] = molecular target: T1, human OX40 on cells (CHO-hOX40, …); test: flow cytometry, CHO-hOX40, 100 nM
[7] = molecular target: T1, human OX40 on cells (CHO-hOX40, …); test: flow cytometry, 293HEK-hOX40, 8 nM
[8] = molecular target: T1, human OX40 on cells (CHO-hOX40, …); test: flow cytometry, 293HEK-hOX40, 40 nM
[9] = molecular target: T1, human OX40 on cells (CHO-hOX40, …); test: flow cytometry, 293HEK-hOX40, 1.6 nM
[10] = molecular target: T1, human OX40 on cells (CHO-hOX40, …); test: flow cytometry, 293HEK-hOX40, 200 nM
[11] = molecular target: T1, human OX40 on cells (CHO-hOX40, …); test: flow cytometry, MFI on CHO-hOX40 over wild-type CHO; remark: listed apart in the source
[12] = molecular target: T4, mouse OX40Fc (Acro Biosystems); test: BLI, IgG1 on tip, mouse OX40-Fc 100 nM, avid; remark: listed apart in the source
[13] = molecular target: T1, human OX40 on cells (CHO-hOX40, …); test: flow cytometry, activated CD4+ T cells, donor 2, 100 nM
[14] = molecular target: T1, human OX40 on cells (CHO-hOX40, …); test: flow cytometry, activated CD4+ T cells, donor 1, 100 nM
[15] = molecular target: T1, human OX40 on cells (CHO-hOX40, …); test: flow cytometry, CHO-hOX40, 100 nM blocker, competitor OX40L-hFc-fluorescein
[16] = molecular target: T3, human OX40_Fc (R&D Systems); test: BLI, IgG1 on tip, hOX40-Fc 50 nM, avid; remark: listed apart in the source
[17] = molecular target: T1, human OX40 on cells (CHO-hOX40, …); test: cell-based or functional assay; remark: listed apart in the source
[18] = molecular target: T1, human OX40 on cells (CHO-hOX40, …); test: flow cytometry, CHO-hOX40, 100 nM; remark: listed apart in the source
[19] = molecular target: T2, cyno OX40_Fc (Acro Biosystems); test: BLI, IgG1 on tip, cyno OX40-Fc 100 nM, avid; remark: listed apart in the source
[20] = molecular target: T1, human OX40 on cells (CHO-hOX40, …); test: flow cytometry, CHO-hOX40, 0.048828125 nM
[21] = molecular target: T1, human OX40 on cells (CHO-hOX40, …); test: flow cytometry, CHO-hOX40, 6.25 nM
[22] = molecular target: T1, human OX40 on cells (CHO-hOX40, …); test: flow cytometry, CHO-hOX40, 200 nM
[23] = molecular target: T1, human OX40 on cells (CHO-hOX40, …); test: flow cytometry, CHO-hOX40, 1.5625 nM
[24] = molecular target: T1, human OX40 on cells (CHO-hOX40, …); test: flow cytometry, CHO-hOX40, 12.5 nM
[25] = molecular target: T1, human OX40 on cells (CHO-hOX40, …); test: flow cytometry, CHO-hOX40, 50 nM
[26] = molecular target: T1, human OX40 on cells (CHO-hOX40, …); test: flow cytometry, CHO-hOX40, 0.1953125 nM
[27] = molecular target: T1, human OX40 on cells (CHO-hOX40, …); test: flow cytometry, CHO-hOX40
[28] = molecular target: T1, human OX40 on cells (CHO-hOX40, …); test: flow cytometry, CHO-hOX40, 0.024414063 nM
[29] = molecular target: T1, human OX40 on cells (CHO-hOX40, …); test: flow cytometry, CHO-hOX40, 100 nM; remark: listed apart in the source
[30] = molecular target: T1, human OX40 on cells (CHO-hOX40, …); test: flow cytometry, CHO-hOX40, 25 nM
[31] = molecular target: T1, human OX40 on cells (CHO-hOX40, …); test: flow cytometry, CHO-hOX40, 0.09765625 nM
[32] = molecular target: T1, human OX40 on cells (CHO-hOX40, …); test: flow cytometry, CHO-hOX40, 3.125 nM
[33] = molecular target: T1, human OX40 on cells (CHO-hOX40, …); test: flow cytometry, CHO-hOX40, 0.78125 nM
[34] = molecular target: T1, human OX40 on cells (CHO-hOX40, …); test: flow cytometry, CHO-hOX40, 0.390625 nM

Binder | MFI [7] [MFI] | MFI [8] [MFI] | MFI [9] [MFI] | MFI [10] [MFI] | Fold difference [11] [fold] | Kd [12] [nM] | MFI [13] [MFI] | MFI [14] [MFI] | MFI of OX40L signal on CHO-OX40 cells [15] [MFI] | Kd [16] [nM] | NFkB-Luc fold change in Jurkat stimulated by PHA+ anti-CD28 [17] [fold over IgG4 control] | NFkB-Luc fold change in Jurkat stimulated by anti-CD3+ anti-CD28 [17] [fold over IgG4 control] | CHO-OX40 binding intensity (MFI) [18] [MFI] | also measured
B1 | – | – | – | – | – | – | – | – | – | – | – | – | – | EC50, NFkB-luciferase reporter in Jurkat-hOX40 mixed with Raji cells [1]: 0.174 nM; Kd [2]: 1.09 nM; Kd [3]: 0.273 nM; Kd [4]: 8.98 nM; Fold difference [5]: 1550 fold; CHO-OX40 binding intensity (MFI) [6]: 181000 MFI
B2 | 1.1e+06 | 1.82e+06 | 417000 | 1.84e+06 | 1970 | 5.41 | 75400 | 54600 | 31900 | 3.36 | 4.57 | 5.12 | 133000 | –
B3 | 1.73e+06 | 1.85e+06 | 977000 | 1.7e+06 | 1470 | 3.76 | 62600 | 43100 | 34300 | 3.68 | 3.63 | 5.77 | 143000 | Kd [19]: 9.86 nM
B4 | – | – | – | – | – | – | – | – | – | – | – | – | – | MFI [20]: 15400 MFI; MFI [21]: 1.06e+06 MFI; MFI [22]: 2.55e+06 MFI; MFI [23]: 334000 MFI; MFI [24]: 1.52e+06 MFI; MFI [25]: 1.59e+06 MFI; MFI [26]: 49500 MFI; EC50 [27]: 8.37 nM; MFI [28]: 14600 MFI; MFI [29]: 2.39e+06 MFI; MFI [30]: 2.16e+06 MFI; MFI [31]: 28200 MFI; MFI [32]: 660000 MFI; MFI [33]: 188000 MFI; MFI [34]: 101000 MFI
